Tests used:
[1] = system: GRO/CXCL1 and ENA-78/CXCL5 secretion, HuPBMCs; test: Cytokine/chemokine secretion by HuPBMCs (Cytokine Antibody Arrays); assay type: cell-based; settings: primary human monocytes / HuPBMCs, TN 20 μg/ml, 16 h
Procedure: Human blood was purchased from the Long Island Blood Bank, and HuPBMCs were isolated by density gradient centrifugation through Ficoll, and stimulated with recombinant TN (20 μg/ml) expressed in HEK293 or E. coli for 16 h. The extracellular levels of cytokines and chemokines were determined by Cytokine Antibody Arrays.
In light of the protective roles of these neutrophil-attracting chemokines, CXCL1/KC [67,68] and CXCL5/ENA-78 [69,70] in LSI, it is important to determine whether TN could modulate leukocyte infiltration to facilitate potential pathogen elimination during sepsis.

[2] = system: HMGB1 release, primary murine peritoneal macrophages; test: LPS- or SAA-induced HMGB1 release in primary murine peritoneal macrophages (Western blotting); assay type: cell-based; settings: for inhibition of LPS- or SAA-induced HMGB1 release: primary murine peritoneal macrophages, 16 h, serum-free OPTI-MEM I, TN from HEK293 or E. coli
Procedure: A, B, Primary murine peritoneal macrophages. C, Primary human peripheral blood mononuclear cells (HuPBMCs). Murine macrophages or human monocytes (HuPBMCs) were cultured in serum-free OPTI-MEM I medium, and stimulated with LPS or SAA for 16 h at the indicated concentrations. The extracellular HMGB1 levels were determined by Western blotting, and expressed as % of maximal stimulation by LPS or SAA alone.
Immune-modulating properties of tetranectin: To explore TN's immune-modulating properties, its effects on the LPS- and SAA-induced HMGB1 release were examined in murine macrophage and human monocyte cultures. […] This inhibition was TN-dose-dependent, evident at concentrations as low as 5.0 μg/ml, and became more dramatic (with 50-100% inhibition) at higher doses.
Effects of TN on the LPS-, IFN-γ-, or SAA-induced HMGB1 release. To elucidate the regulatory mechanisms of HMGB1 release, we will examine the impact of TN and its peptide agonists on the HMGB1 release induced by a wide array of inflammatory stimuli including the crude LPS [75], IFN-γ [76] and SAA [77], in macrophage and monocyte cultures. Primary peritoneal macrophages will be isolated from the Balb/C mice (both male and female, 7-8 weeks, 20-25 g) at 2-3 days after intraperitoneal injection of 2 ml thioglycollate broth (4%, Difco, Detroit, Mich.) as previously described. Human peripheral blood mononuclear cells (HuPBMCs) will be isolated from human blood obtained from the Long Island Blood Bank (NY) by density gradient centrifugation through Ficoll as previously described. At 80-90% confluence, macrophage/monocyte cultures will be stimulated with the crude LPS (Cat. No. L3012, Sigma-Aldrich), IFN-γ (Cat. No. 14777, Sigma-Aldrich), or SAA (Cat. No. 300-13, PeproTech) at different concentrations and for various time periods. The extracellular levels of HMGB1 in the culture medium will be determined by Western blotting as previously described.

HMGB1 = target: T1, HMGB1 (Homo sapiens, UniProt P09429); test: BIAcore surface plasmon resonance assay of HMGB1-TN interaction; settings: TN immobilized on CM5 chip, HMGB1 as analyte; read-out: estimated (apparent) Kd of HMGB1 binding to TN
T1 sequence (P09429 1-215): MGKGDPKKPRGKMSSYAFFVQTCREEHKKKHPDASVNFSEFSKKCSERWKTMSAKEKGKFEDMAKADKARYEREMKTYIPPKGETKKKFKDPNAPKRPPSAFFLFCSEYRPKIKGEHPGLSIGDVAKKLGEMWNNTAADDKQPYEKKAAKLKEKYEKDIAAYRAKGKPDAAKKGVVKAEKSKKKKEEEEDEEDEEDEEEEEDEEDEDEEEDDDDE
Procedure: FIG. 11: BIAcore Surface Plasmon Resonance Assay of HMGB1-TN Interaction. Recombinant TN was immobilized on the sensor chip, and HMGB1 was applied as an analyte at different concentrations. The response units were recorded over time, and the binding affinity was estimated as the apparent Kd.
Effects of TN supplementation on the sepsis-induced coagulation. This laboratory has recently discovered that some pharmacological agents (e.g., tanshinones) inhibit HMGB1 release by facilitating its internalization into macrophage cytoplasmic vesicles via the clathrin- and caveolin-dependent endocytosis. Similarly, some endogenous proteins (e.g., haptoglobin) can also capture HMGB1 to enhance its cellular uptake through a CD163 receptor-mediated endocytosis. Thus it is determined whether TN can capture HMGB1 and enhance its internalization into macrophages/monocytes. The TN-HMGB1 interaction is investigated by employing the surface plasmon resonance (SPR) technology as previously described. Briefly, the highly purified recombinant TN or HMGB1 is covalently immobilized on a CM5 chip, and HMGB1 or TN is applied to the chip at various concentrations, before the SPR response will be monitored using a BIAcore system as previously described.

B1: tetranectin (protein, listed as Homo sapiens)
chain: EPPTQKPKKIVNAKKDVVNTKMFEELKSRLDTLAQEVALLKEQQALQTVCLKGTKVHMKCFLAFTQTKTFHEASEDCISRGGTLGTPQTGSENDALYEYLRQSVGNEAEIWLGLNDMAAEGTWVDMTGARIAYKNWETEITAQPDGGKTENCAVLSGAANGKWFDKRCRDQLPYICQFGIV
release of neutrophil-attracting chemokines (CXCL1/GRO-α/KC and CXCL5/ENA-78) [1]: induced the release | release of neutrophil-attracting chemokines (CXCL1/GRO-α/KC and CXCL5/ENA-78) ([1]; listed as Recombinant TN): specifically induced | release of neutrophil-attracting chemokines (CXCL1/GRO-α/KC and CXCL5/ENA-78) ([1]; listed as recombinant TN): specifically stimulated | effect on LPS- or SAA-induced release of most other cytokines (G-CSF, IL-6, IL-12) and chemokines (KC, LIX, MIP-1α, MIP-2, RANTES) ([2]; data not shown, cells not specified): did not inhibit | lowest concentration at which inhibition of HMGB1 release was evident ([2]; murine macrophages): 5.0 µg/mL | inhibition of LPS- or SAA-induced HMGB1 release [2]: dose-dependently inhibited | inhibition of LPS- or SAA-induced HMGB1 release ([2]; listed as recombinant human TN protein): capable of inhibiting | Kd (HMGB1): 570 nM
